Results published in US20180311348A1 (LUDWIG MAXIMILIANS UNIVERSIT T M NCHEN, published 2018).

Assays:
CD47 [1] = molecular target: T1, CD47 (human, UniProt Q08722 19-323); test: cell-based or functional assay
CD47 [2] = molecular target: T1, CD47; test: flow cytometry titration on CHO.exCD47 cells, anti-HIS ALEXA-488 detection, n=3
CD33 [3] = molecular target: T2, CD33 (human, UniProt P20138 18-364); test: column 'KD MOLM-13': flow cytometry on MOLM-13 cells (CD33+ CD47+), KD as an avidity value
T2 construct: whole, on cells; Species is stated as human for the transfected lines; also called human CD33; CHO.exCD33

CD33 [4] = molecular target: T2, CD33; test: flow cytometry titration on MOLM-13 cells (CD33+ CD47+), KD as an avidity value
CD33 [5] = molecular target: T2, CD33; test: column 'KD MOLM-13': calibrated flow cytometry on MOLM-13 cells, KD as an avidity value
Procedure: (§1) CD33 equilibrium binding constants (KD, as an avidity measurement) of the licMABs and mAb were determined by calibrated flow cytometry analyses as previously described (Benedict et al., 1997; J. Immunol. Methods; 201(2); 223-231). Briefly, MOLM-13 cells were incubated with licMABs or mAb in concentrations ranging from 0.01 to 15 μg/ml and stained with a FITC antiHuman IgG Fc (clone HP6017, BioLegend) secondary antibody by flow cytometry. The instrument was calibrated with 3.0-3.4 μm Rainbow Calibration particles of 8 peaks (BioLegend), the maximum MFI value was set to 100% and all data points were normalized accordingly. The assay was performed in quadruplicates and the values were analyzed by non-linear regression using a one-site specific binding model.

CD33 [6] = molecular target: T2, CD33; test: calibrated flow cytometry titration on MOLM-13 cells, KD as an avidity value
Procedure: as §1

CD33 [7] = molecular target: T2, CD33; test: calibrated flow cytometry titration on MOLM-13 cells, KD as an avidity value; panel 'KD determination of Fc-engineered licMABs'
Procedure: as §1

T2 sequence (P20138 18-364): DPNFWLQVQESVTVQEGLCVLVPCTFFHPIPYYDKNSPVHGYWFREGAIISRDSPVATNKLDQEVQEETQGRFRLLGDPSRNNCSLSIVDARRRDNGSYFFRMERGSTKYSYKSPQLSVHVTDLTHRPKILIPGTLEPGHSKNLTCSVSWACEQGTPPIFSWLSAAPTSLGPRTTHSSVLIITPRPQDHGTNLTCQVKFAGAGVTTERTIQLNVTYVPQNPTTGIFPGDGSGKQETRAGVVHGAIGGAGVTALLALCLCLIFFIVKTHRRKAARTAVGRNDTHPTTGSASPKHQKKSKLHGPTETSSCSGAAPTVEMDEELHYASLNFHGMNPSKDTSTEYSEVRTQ

B1: SirpIg-SirpIg-anti-CD16-anti-CD33 liCAD (other)
chain: EEELQVIQPDKSVLVAAGETATLRCTATSLIPVGPIQWFRGAGPGRELIYNQKEGHFPRVTTVSDLTKRNNMDFSIRIGNITPADAGTYYCVKFRKGSPDDVEFKSGAGTELSVRAKPSGGGGSGGGGSGGGGSGGGGSEEELQVIQPDKSVLVAAGETATLRCTATSLIPVGPIQWFRGAGPGRELIYNQKEGHFPRVTTVSDLTKRNNMDFSIRIGNITPADAGTYYCVKFRKGSPDDVEFKSGAGTELSVRAKPSGGGGSGGGGSGGGGSGGGGSQVTLKESGPGILQPSQTLSLTCSFSGFSLRTSGMGVGWIRQPSGKGLEWLAHIWWDDDKRYNPALKSRLTISKDTSSNQVFLKIASVDTADTATYYCAQINPAWFAYWGQGTLVTVSAGGGGSGGGGSGGGGSGGGGSDTVLTQSPASLAVSLGQRATISCKASQSVDFDGDSFMNWYQQKPGQPPKLLIYTTSNLESGIPARFSASGSGTDFTLNIHPVEEEDTATYYCQQSNEDPYTFGGGTKLEIKGGGGSGGGGSGGGGSGGGGSDIQLTQSPSTLSASVGDRVTITCRASESLDNYGIRFLTWFQQKPGKAPKLLMYAASNQGSGVPSRFSGSGSGTEFTLTISSLQPDDFATYYCQQTKEVPWSFGQGTKVEVKGGGGSGGGGSGGGGSGGGGSEVQLVQSGAEVKKPGSSVKVSCKASGYTITDSNIHWVRQAPGQSLEWIGYIYPYNGGTDYNQKFKNRATLTVDNPTNTAYMELSSLRSEDTAFYYCVNGNPWLAYWGQGTLVTVSS
- EC50 (concentration of half maximum lysis), redirected lysis of MOLM 13 cells by expanded PBMC effector cells, E:T 2:1, 4 h (CD47 [1]): 0.0015 nM
- Kd (CD47 [2]): 21 nM
- Kd (CD33 [3]): 30 nM
- Kd (CD33 [4]): 30 nM

B2: αCD33 mAB (antibody, human IgG1)
heavy: not shown
light: DIQLTQSPSTLSASVGDRVTITCRASESLDNYGIRFLTWFQQKPGKAPKLLMYAASNQGSGVPSRFSGSGSGTEFTLTISSLQPDDFATYYCQQTKEVPWSFGQGTKVEVKVAAPSVFIFPPSDEQLKSGTASVVCLLNNFYPREAKVQWKVDNALQSGNSQESVTEQDSKDSTYSLSSTLTLSKADYEKHKVYACEVTHQGLSSPVTKSFNRGEC
notes: Human IgG1/kappa (pFUSE-CHIg-hG1, pFUSE2-CLIg-hk); It was obtained from SIRPα-PreSc-antiCD33 by PreScission cleavage, so residues of the cleavage site may remain at the light chain N-terminus; also called antiCD33 mAb; anti-CD33 mAB (clone hP67.6)
- Kd (CD33 [5]): 3 nM
- Kd (CD33 [6]): 3 nM

B3: Fc-engineered variant of αCD33 mAB (antibody, human IgG1)
heavy: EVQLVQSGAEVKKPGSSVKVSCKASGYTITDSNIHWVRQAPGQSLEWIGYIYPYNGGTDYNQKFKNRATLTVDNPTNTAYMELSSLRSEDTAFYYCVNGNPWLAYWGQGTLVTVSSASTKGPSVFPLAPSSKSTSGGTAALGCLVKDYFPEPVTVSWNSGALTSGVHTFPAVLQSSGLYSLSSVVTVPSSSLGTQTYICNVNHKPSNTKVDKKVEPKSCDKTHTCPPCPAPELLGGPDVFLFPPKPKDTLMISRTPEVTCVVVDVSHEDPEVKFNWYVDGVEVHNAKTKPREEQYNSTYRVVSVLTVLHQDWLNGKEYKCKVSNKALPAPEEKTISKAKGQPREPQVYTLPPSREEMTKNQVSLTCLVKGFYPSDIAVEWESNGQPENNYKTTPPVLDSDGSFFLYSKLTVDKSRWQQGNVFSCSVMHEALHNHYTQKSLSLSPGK
light: DIQLTQSPSTLSASVGDRVTITCRASESLDNYGIRFLTWFQQKPGKAPKLLMYAASNQGSGVPSRFSGSGSGTEFTLTISSLQPDDFATYYCQQTKEVPWSFGQGTKVEVKVAAPSVFIFPPSDEQLKSGTASVVCLLNNFYPREAKVQWKVDNALQSGNSQESVTEQDSKDSTYSLSSTLTLSKADYEKHKVYACEVTHQGLSSPVTKSFNRGEC
notes: Same as m7 with the Fc-engineered IgG1 constant region (S239D, I332E); also called Fc-engineered mAB
- Kd (CD33 [5]): 2 nM
- Kd (CD33 [7]): 2 nM
